How the values were obtained:
[1] = molecular target: recombinant soluble CMV envelope glycoprotein B (human cytomegalovirus) (UniProt P13201); assay: SPR (Biacore); DC-SIGN CRD injected over immobilised CMV gB; Langmuir fit, average
[2] = molecular target: recombinant soluble CMV envelope glycoprotein B (human cytomegalovirus) (UniProt P13201); assay: SPR (Biacore); DC-SIGN CRD injected over immobilised CMV gB; from koff/kon

recombinant soluble CRD of DC-SIGN (amino acids 254-404), sequence (Q9NNX6 254-404 limits assumed): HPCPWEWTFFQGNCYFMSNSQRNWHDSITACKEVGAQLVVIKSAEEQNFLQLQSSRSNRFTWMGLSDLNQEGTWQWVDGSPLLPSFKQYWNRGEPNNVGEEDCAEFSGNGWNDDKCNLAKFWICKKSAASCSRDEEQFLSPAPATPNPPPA

recombinant soluble CRD of DC-SIGN (amino acids 254-404) (from UniProt Q9NNX6 254-404) (receptor)
koff [1]: 0.00126 s⁻¹
kon [1]: 4400 M⁻¹ s⁻¹
Kd [2]: 290 nM

From patent US20040141968A1
